The source of these data is PMC8213813, “Mechanism of genome instability mediated by human DNA polymerase mu misincorporation”.

In data set [1] the target is T1, DNA polymerase mu core domain K438A/Q441A (Homo sapiens, UniProt Q9NP87 136-494, K438A;Q441A;del398-410). The experiment in a line: X-ray crystallography; post-insertion; second dGTP (10 mM soak), 10 mM Mg2+, Na+; Crystals: protein (~7 mg/ml in 25 mM Tris/HCl pH 7.5, 100 mM KCl, 1 mM DTT) with DNA at 1:1.5; binary: 0.1 M sodium citrate pH 5.5, 18% 2-propanol, PEG4000; ternary: pH 6.5-8.0, PEG3350 or PEG10000; nucleotide/metal soak 4 h at 4 °C. To be noted: protein: recombinant; tags: His (pET28a, nickel purified); template 9 nt + extended primer 5 nt + downstream primer 4 nt; nascent dG displaced by second dGTP.
T1 sequence (Q9NP87 other isoform, or with tags, fused parts or gaps K438A;Q441A;del398-410 | K438A Q441A K438A Q441A): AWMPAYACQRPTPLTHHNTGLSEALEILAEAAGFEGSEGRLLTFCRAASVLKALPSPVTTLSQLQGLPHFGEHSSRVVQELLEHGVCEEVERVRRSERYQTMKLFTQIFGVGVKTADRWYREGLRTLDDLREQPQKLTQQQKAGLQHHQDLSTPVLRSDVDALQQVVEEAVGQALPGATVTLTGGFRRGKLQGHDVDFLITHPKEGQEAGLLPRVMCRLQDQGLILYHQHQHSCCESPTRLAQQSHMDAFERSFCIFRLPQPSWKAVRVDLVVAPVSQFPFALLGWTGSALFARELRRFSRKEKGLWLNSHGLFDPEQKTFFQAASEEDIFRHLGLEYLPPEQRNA

For data set [2], the target named is T2, DNA polymerase mu core domain (WT) (Homo sapiens, UniProt Q9NP87 136-494, del398-410). The experiment in a line: X-ray crystallography; dGMPNPP, 10 mM Mg2+ (Complex 1); Crystals: protein (~7 mg/ml in 25 mM Tris/HCl pH 7.5, 100 mM KCl, 1 mM DTT) with DNA at 1:1.5; binary: 0.1 M sodium citrate pH 5.5, 18% 2-propanol, PEG4000; ternary: pH 6.5-8.0, PEG3350 or PEG10000; nucleotide/metal soak 4 h at 4 °C. The conditions noted are these: protein: recombinant; tags: His (pET28a, nickel purified); template 10 nt + upstream primer 4 nt + downstream primer 4 nt; 2-nt gap; blunt outer ends.
T2 sequence (Q9NP87 other isoform, or with tags, fused parts or gaps del398-410): as the sequence (Q9NP87 other isoform, or with tags, fused parts or gaps K438A;Q441A;del398-410 | K438A Q441A K438A Q441A) above, with A290K, A293Q counted along it

Data set [3] has as its target T1, DNA polymerase mu core domain …. The data set is described as follows: X-ray crystallography; dGMPNPP, 10 mM Mg2+ (Complex 5); Crystals: protein (~7 mg/ml in 25 mM Tris/HCl pH 7.5, 100 mM KCl, 1 mM DTT) with DNA at 1:1.5; binary: 0.1 M sodium citrate pH 5.5, 18% 2-propanol, PEG4000; ternary: pH 6.5-8.0, PEG3350 or PEG10000; nucleotide/metal soak 4 h at 4 °C. The conditions noted are these: protein: recombinant; tags: His (pET28a, nickel purified); template 9 nt + upstream primer 4 nt + downstream primer 4 nt; 1-nt gap; blunt outer ends.

The target of data set [4] is DNA polymerase mu core domain Q441A (Homo sapiens, UniProt Q9NP87 136-494, Q441A;del398-410). The data set is described as follows: X-ray crystallography; dGMPNPP, 10 mM Mg2+ (Complex 4); Crystals: protein (~7 mg/ml in 25 mM Tris/HCl pH 7.5, 100 mM KCl, 1 mM DTT) with DNA at 1:1.5; binary: 0.1 M sodium citrate pH 5.5, 18% 2-propanol, PEG4000; ternary: pH 6.5-8.0, PEG3350 or PEG10000; nucleotide/metal soak 4 h at 4 °C. To be noted: protein: recombinant; tags: His (pET28a, nickel purified); template 9 nt + upstream primer 4 nt + downstream primer 4 nt; 1-nt gap; blunt outer ends.
DNA polymerase mu core domain Q441A, sequence (Q9NP87 other isoform, or with tags, fused parts or gaps Q441A;del398-410 | Q441A Q441A): as the sequence (Q9NP87 other isoform, or with tags, fused parts or gaps K438A;Q441A;del398-410 | K438A Q441A K438A Q441A) above, with A290K counted along it

Data set [5] deals with T2, DNA polymerase mu core domain (WT). The experiment in a line: X-ray crystallography; binary; Mg2+; Crystals: protein (~7 mg/ml in 25 mM Tris/HCl pH 7.5, 100 mM KCl, 1 mM DTT) with DNA at 1:1.5; binary: 0.1 M sodium citrate pH 5.5, 18% 2-propanol, PEG4000; ternary: pH 6.5-8.0, PEG3350 or PEG10000; nucleotide/metal soak 4 h at 4 °C. The conditions noted are these: protein: recombinant; tags: His (pET28a, nickel purified); template 9 nt + upstream primer 4 nt + downstream primer 4 nt; 1-nt gap; blunt outer ends.

B1: 1-nt gapped DNA after dGTP insertion (T:G product) (dsDNA)
DNA 1: CGGCTTACG
DNA 2: CGTAG
DNA 3: GCCG
modifications: 5'-phosphate on downstream primer
As for B1, the binding result in data set [1] is recorded as “binds”.

B2: 2-nt gapped DNA, templating TT (crystallization) (dsDNA)
DNA 1: CGGCTTTACG
DNA 2: CGTA
DNA 3: GCCG
modifications: 5'-phosphate on downstream primer
As for B2, in data set [2], the binding result was “binds”.

B3: 1-nt gapped DNA, templating T (crystallization) (dsDNA)
DNA 1: CGGCTTACG
DNA 2: CGTA
DNA 3: GCCG
modifications: 5'-phosphate on downstream primer
Turning to B3, the binding result in data set [3], in data set [4] and in data set [5] was “binds” throughout.
